# B1: scFv; the commonest letter at each place (parent)
# chain 1: EVKLDETGGGLVQPGRPMKLSCVASGFTFSDYWMNWVRQSPEKGLEWVAQIRNKPYNYETYYSDSVKGRFTISRDDSKSSVYLQMNNLRVEDMGIYYCTGSYYGMDYWGQGTSVTVS
# chain 2: DVVMTQTPLSLPVSLGDQASISCRSSQSLVHSNGNTYLRWYLQKPGQSPKVLIYKVSNRFSGVPDRFSGSGSGTDFTLKISRVEAEDLGVYFCSQSTHVPWTFGGGTKLEIK
# Assays:
# fluorescein = variants of: B1; assay: Kd (Tite-Seq); conditions: with fluorescein; format: scFv 4-4-20, heavy + light
# [1] = variants of: B1; assay: yeast surface expression (ratio to wild type); higher = more expressed; conditions: format: scFv 4-4-20, heavy + light
variant,measurement,setting,value
chain 1 F29C W36V,Kd,fluorescein,≥ 10 µM
same,yeast surface expression,[1],0.635
chain 1 T28W D31R,Kd,fluorescein,0.0171 µM
same,yeast surface expression,[1],0.51
chain 1 Y103D M105N,Kd,fluorescein,≥ 10 µM
same,yeast surface expression,[1],1.19
chain 1 Y32G N35V,Kd,fluorescein,≥ 10 µM
same,yeast surface expression,[1],0.513
chain 1 T28D F29T W36L,Kd,fluorescein,≥ 10 µM
same,yeast surface expression,[1],0.514
chain 1 S101Y D106K,Kd,fluorescein,≥ 10 µM
same,yeast surface expression,[1],0.117
chain 1 F29P Y32A,Kd,fluorescein,2.47 µM
same,yeast surface expression,[1],1.12
chain 1 Y103M G104M M105L,Kd,fluorescein,≥ 10 µM
same,yeast surface expression,[1],0.562
chain 1 G100S G104W,Kd,fluorescein,≥ 10 µM
same,yeast surface expression,[1],0.425
chain 1 Y103M D106G,Kd,fluorescein,≥ 10 µM
same,yeast surface expression,[1],0.479
chain 1 M105V D106Y,Kd,fluorescein,≥ 10 µM
same,yeast surface expression,[1],0.489
chain 1 G100I W108R,Kd,fluorescein,≥ 10 µM
same,yeast surface expression,[1],0.781
chain 1 Y107V G109E,Kd,fluorescein,≥ 10 µM
same,yeast surface expression,[1],0.339
chain 1 N35K W36F,Kd,fluorescein,≥ 10 µM
same,yeast surface expression,[1],0.453
chain 1 D31S M34G,Kd,fluorescein,≥ 10 µM
same,yeast surface expression,[1],0.543
chain 1 T28C Y32W,Kd,fluorescein,≥ 10 µM
same,yeast surface expression,[1],0.802
chain 1 F29M D31T,Kd,fluorescein,0.00746 µM
same,yeast surface expression,[1],0.848
chain 1 F29M D31I,Kd,fluorescein,≥ 10 µM
same,yeast surface expression,[1],0.518
chain 1 Y102S M105N,Kd,fluorescein,0.0038 µM
same,yeast surface expression,[1],1.31
chain 1 T28Q W33V,Kd,fluorescein,≥ 10 µM
same,yeast surface expression,[1],1.34
chain 1 T28V W36H,Kd,fluorescein,≥ 10 µM
same,yeast surface expression,[1],0.619
chain 1 F29P V37H,Kd,fluorescein,≥ 10 µM
same,yeast surface expression,[1],0.626
chain 1 G100I Y103E,Kd,fluorescein,≥ 10 µM
same,yeast surface expression,[1],0.879
chain 1 T28K V37R,Kd,fluorescein,0.195 µM
same,yeast surface expression,[1],2.19
chain 1 M34P W36L,Kd,fluorescein,≥ 10 µM
same,yeast surface expression,[1],0.216
chain 1 G100W Y107R,Kd,fluorescein,≥ 10 µM
same,yeast surface expression,[1],0.229
chain 1 S101E G104S,Kd,fluorescein,≥ 10 µM
same,yeast surface expression,[1],0.804
chain 1 Y107Q,Kd,fluorescein,0.0194 µM
same,yeast surface expression,[1],0.757
chain 1 Y32S N35E V37Q,Kd,fluorescein,≥ 10 µM
same,yeast surface expression,[1],0.677
chain 1 D31A W36M,Kd,fluorescein,≥ 10 µM
same,yeast surface expression,[1],0.551
chain 1 G104N D106W,Kd,fluorescein,≥ 10 µM
same,yeast surface expression,[1],0.316
chain 1 T28R W33G,Kd,fluorescein,≥ 10 µM
same,yeast surface expression,[1],0.684
chain 1 D106R Y107D,Kd,fluorescein,≥ 10 µM
same,yeast surface expression,[1],0.462
chain 1 D106R Y107N,Kd,fluorescein,≥ 10 µM
same,yeast surface expression,[1],0.359
chain 1 S101N W108P,Kd,fluorescein,≥ 10 µM
same,yeast surface expression,[1],0.506
chain 1 S101F G104L,Kd,fluorescein,≥ 10 µM
same,yeast surface expression,[1],0.778
chain 1 S101F G104I,Kd,fluorescein,≥ 10 µM
same,yeast surface expression,[1],0.187
chain 1 M105R W108A,Kd,fluorescein,7.33 µM
same,yeast surface expression,[1],0.498
chain 1 W36D V37M,Kd,fluorescein,≥ 10 µM
same,yeast surface expression,[1],1.25
chain 1 F29G S30E,Kd,fluorescein,≥ 10 µM
same,yeast surface expression,[1],1
chain 1 F29K Y32G,Kd,fluorescein,≥ 10 µM
same,yeast surface expression,[1],0.778
chain 1 W33T N35Q,Kd,fluorescein,≥ 10 µM
same,yeast surface expression,[1],0.887
chain 1 S101R Y107C,Kd,fluorescein,≥ 10 µM
same,yeast surface expression,[1],0.286
chain 1 S101R Y107L,Kd,fluorescein,≥ 10 µM
same,yeast surface expression,[1],0.862
chain 1 T28S,Kd,fluorescein,0.00325 µM
same,yeast surface expression,[1],0.985
chain 1 T28I,Kd,fluorescein,0.000504 µM
same,yeast surface expression,[1],1.07
chain 1 W36V,Kd,fluorescein,≥ 10 µM
same,yeast surface expression,[1],0.715
chain 1 W36C,Kd,fluorescein,≥ 10 µM
same,yeast surface expression,[1],0.561
chain 1 S30H D31S N35P,Kd,fluorescein,≥ 10 µM
same,yeast surface expression,[1],0.391
chain 1 Y32V V37I,Kd,fluorescein,≥ 10 µM
same,yeast surface expression,[1],1.03
chain 1 Y32V V37K,Kd,fluorescein,7.72 µM
same,yeast surface expression,[1],0.425
chain 1 Y102S Y103C,Kd,fluorescein,0.0125 µM
same,yeast surface expression,[1],0.707
chain 1 Y102T M105K,Kd,fluorescein,0.00708 µM
same,yeast surface expression,[1],0.849
chain 1 G100H S101E,Kd,fluorescein,≥ 10 µM
same,yeast surface expression,[1],0.4
chain 1 Y107W G109K,Kd,fluorescein,≥ 10 µM
same,yeast surface expression,[1],0.336
chain 1 Y103A W108E,Kd,fluorescein,≥ 10 µM
same,yeast surface expression,[1],0.603
chain 1 G104Q Y107G W108I,Kd,fluorescein,≥ 10 µM
same,yeast surface expression,[1],0.271
chain 1 Y103P D106T W108C,Kd,fluorescein,≥ 10 µM
same,yeast surface expression,[1],0.258
